Legend:
[1] = target: serum-derived protein (Zucker rat); experiment: solid phase capture ELISA of Zucker rat skin perfusate, 2 minutes after perfusion, 1 mM Ca^2+
[2] = target: serum-derived protein (Zucker rat); experiment: solid phase capture ELISA of Zucker rat skin perfusate, 30 minutes after start of perfusion, 1 mM Ca^2+
[3] = target: serum-derived protein (Zucker rat); experiment: solid phase capture ELISA of Zucker rat skin perfusate, 90 minutes after perfusion, 1 mM Ca^2+
[4] = target: serum-derived protein (Zucker rat); experiment: solid phase capture ELISA of Zucker rat skin perfusate, 30 minutes after perfusion, 1 mM Ca^2+
[5] = target: serum-derived protein (Zucker rat); experiment: solid phase capture ELISA of Zucker rat skin perfusate, 60 minutes after perfusion, 10 mM Ca^2+
[6] = target: serum-derived protein (Zucker rat); experiment: solid phase capture ELISA of Zucker rat skin perfusate, 30 minutes after perfusion, 10 mM Ca^2+
[7] = target: serum-derived protein (Zucker rat); experiment: solid phase capture ELISA of Zucker rat skin perfusate, 90 minutes after perfusion, 10 mM Ca^2+
[8] = target: serum-derived protein (Zucker rat); experiment: solid phase capture ELISA of Zucker rat skin perfusate, 2 minutes after perfusion, 10 mM Ca^2+

wild-type human matrix metalloprotease 1 (hMMP-1), purified and trypsin-activated, sequence (P03956 100-469): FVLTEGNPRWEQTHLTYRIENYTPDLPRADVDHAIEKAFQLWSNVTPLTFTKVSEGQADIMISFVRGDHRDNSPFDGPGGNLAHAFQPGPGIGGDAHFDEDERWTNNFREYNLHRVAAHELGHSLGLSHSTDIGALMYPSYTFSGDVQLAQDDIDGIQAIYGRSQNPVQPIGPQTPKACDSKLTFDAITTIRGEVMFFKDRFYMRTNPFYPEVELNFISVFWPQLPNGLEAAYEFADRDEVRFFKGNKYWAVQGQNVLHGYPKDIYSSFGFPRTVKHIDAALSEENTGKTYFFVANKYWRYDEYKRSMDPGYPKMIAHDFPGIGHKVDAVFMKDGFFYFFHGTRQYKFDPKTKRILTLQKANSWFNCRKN

| Substance | percent of uncomplexed protein (of the starting concentration) [1] [%] | uncomplexed protein as a fraction of the starting concentration (fraction of the starting concentration) [2] | uncomplexed protein as a fraction of the starting concentration (fraction of the starting concentration) [3] | uncomplexed protein as a fraction of the starting concentration (fraction of the starting concentration) [4] | percent of uncomplexed protein (of the starting concentration) [5] [%] | percent of uncomplexed protein (of the starting concentration) [6] [%] | percent of uncomplexed protein (of the starting concentration) [7] [%] | percent of uncomplexed protein (of the starting concentration) [8] [%] |
| --- | --- | --- | --- | --- | --- | --- | --- | --- |
| wild-type human matrix metalloprotease 1 (hMMP-1), purified and trypsin-activated (from UniProt P03956 100-469) (enzyme) | 90 | 0.5 | 0.33 |  |  |  |  |  |
| MMP-1 mutant GVSK (G159V/S208K), purified and trypsin-activated (from UniProt P03956 100-469) (enzyme) | 45 |  |  | < 0.1 | 30 | 50 | 13 | 90 |

— patent publication US20140219992A1
